Reference: US20050221443A1 (published 2005)

Target: T1, RANK-L (UniProt O14788 140-317, limits assumed)
T1 sequence (looked up): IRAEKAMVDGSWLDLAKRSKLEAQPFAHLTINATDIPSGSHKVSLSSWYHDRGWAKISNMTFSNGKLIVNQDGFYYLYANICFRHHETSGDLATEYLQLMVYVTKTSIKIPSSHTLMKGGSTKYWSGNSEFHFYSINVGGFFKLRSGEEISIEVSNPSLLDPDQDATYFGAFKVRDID
Assay: polarization anisotropy at steady state, 1 ug/mL Alexa568 TNF with increasing concentrations of RANK-L, 1 hour at 37 C
Method: This assay necessitated a fluorescently labeled TNF trimer that at limiting concentrations could be used as a tracer to monitor exchange. We generated a TNF variant (R31C/C69V/C101A) and specifically labeled it with Alexa568 maleimide at the R31 position. Polarization anisotropy measures heterotrimer formation at steady-state. We mixed 1 ug/mL Alexa568 TNF either alone (open circles) or with increasing concentrations of RANK-L (open squares), PEG20k-A145R/Y87H TNF, PEG5k-A145R/Y87H, or A145R/Y87H in PBS/0.02% igepal for 1 hour at 37 C. These reactions were placed into the spectroscopic instrument-and the steady-state anisotropy was measured. […] (FIG. 8B) Addition of surfactant excipients catalyzes the exchange between TNF homotrimers. We mixed together 1 ug/mL Alexa568 TNF alone (open circles) or with 100 ug/mL PEG-5k A145R/I97T TNF (closed circles) in a 96-well assay format and began anisotropy measurements. After ˜2000 seconds the instrument was paused and 0.5% polysorbate-20 or polysorbate-80 were added and the measurement was resumed.

B1: Alexa568 TNF (TNF variant R31C/C69V/C101A labeled with Alexa568 maleimide) (ligand, human, UniProt P01375 77-233, looked up)
chain: VRSSSRTPSDKPVAHVVANPQAEGQLQWLNCRANALLANGVELRDNQLVVPSEGLYLIYSQVLFKGQGVPSTHVLLTHTISRIAVSYQTKVNLLSAIKSPAQRETPEGAEAKPWYEPIYLGGVFQLEKGDRLSAEINRPDYLDFAESGQVYFGIIAL
modifications: Alexa568 maleimide at the R31 position (Cys of R31C)
notes: extracellular domain; Fluorescent tracer homotrimer
binding result: no binding
